In article PMC3877758 (2013):

Columns and labels:
[1] = molecular target: eIF2 (yeast (Saccharomyces cerevisiae)) (UniProt P20459); assay: pull-down; GDF assay (competition): 1 µg eIF2 or eIF2αP and 1 µg GST-eIF5 bound to glutathione sepharose beads 2 h at 4°C, washed, then challenged 2 h at 4°C with increasing concentrations of Flag-eIF2B complexes, subunits or eIF5-Flag; 30 mM HEPES, 100 mM KCl, 100 µM GDP, 5 mM DTT, 1 mM NaF, 2.5 mM MgCl2, 0.05% Triton X-100; bound eIF2 by immunoblot; fit y = 1 − [x/(x + IC50)]
Rab9 = Rab9 (UniProt P51151); conditions: cited from earlier work
[2] = molecular target: eIF5 (Saccharomyces cerevisiae) (UniProt P38431); conditions: cited from earlier work
[3] = molecular target: eIF2 (yeast (Saccharomyces cerevisiae)) (UniProt P20459)
[4] = molecular target: eIF2 (yeast (Saccharomyces cerevisiae)) (UniProt P20459); assay: other; displacement of eIF2 from GST-eIF5 (GDF assay); conditions: complex; chains chain;chain;chain;chain
[5] = molecular target: eIF2 (yeast (Saccharomyces cerevisiae)) (UniProt P20459); assay: pull-down; GDF assay (competition): 1 µg eIF2 or eIF2αP and 1 µg GST-eIF5 bound to glutathione sepharose beads 2 h at 4°C, washed, then challenged 2 h at 4°C with increasing concentrations of Flag-eIF2B complexes, subunits or eIF5-Flag; 30 mM HEPES, 100 mM KCl, 100 µM GDP, 5 mM DTT, 1 mM NaF, 2.5 mM MgCl2, 0.05% Triton X-100; bound eIF2 by immunoblot; fit y = 1 − [x/(x + IC50)]; remark: listed apart in the source
eIF2 = molecular target: T1, eIF2 (yeast (Saccharomyces cerevisiae), UniProt P20459 1-304; P09064 1-285; P32481 1-527); assay: displacement of eIF2 from GST-eIF5 (GDF assay)
T1 chain 1: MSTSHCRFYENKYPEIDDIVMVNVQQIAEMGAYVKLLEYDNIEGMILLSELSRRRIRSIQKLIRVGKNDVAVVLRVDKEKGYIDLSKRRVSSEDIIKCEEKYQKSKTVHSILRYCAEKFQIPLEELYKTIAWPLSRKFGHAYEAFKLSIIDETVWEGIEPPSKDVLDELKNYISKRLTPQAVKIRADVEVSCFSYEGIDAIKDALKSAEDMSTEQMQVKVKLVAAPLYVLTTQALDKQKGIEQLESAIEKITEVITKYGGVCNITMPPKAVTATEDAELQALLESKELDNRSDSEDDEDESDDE
T1 chain 2: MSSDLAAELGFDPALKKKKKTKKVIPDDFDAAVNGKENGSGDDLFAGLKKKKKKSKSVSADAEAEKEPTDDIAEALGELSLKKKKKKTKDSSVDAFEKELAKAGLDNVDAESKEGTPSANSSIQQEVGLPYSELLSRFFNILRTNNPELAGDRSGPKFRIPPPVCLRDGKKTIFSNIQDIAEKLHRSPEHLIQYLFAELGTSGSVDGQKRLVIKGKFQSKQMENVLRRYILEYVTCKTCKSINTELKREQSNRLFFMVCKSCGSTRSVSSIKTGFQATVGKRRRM
T1 chain 3: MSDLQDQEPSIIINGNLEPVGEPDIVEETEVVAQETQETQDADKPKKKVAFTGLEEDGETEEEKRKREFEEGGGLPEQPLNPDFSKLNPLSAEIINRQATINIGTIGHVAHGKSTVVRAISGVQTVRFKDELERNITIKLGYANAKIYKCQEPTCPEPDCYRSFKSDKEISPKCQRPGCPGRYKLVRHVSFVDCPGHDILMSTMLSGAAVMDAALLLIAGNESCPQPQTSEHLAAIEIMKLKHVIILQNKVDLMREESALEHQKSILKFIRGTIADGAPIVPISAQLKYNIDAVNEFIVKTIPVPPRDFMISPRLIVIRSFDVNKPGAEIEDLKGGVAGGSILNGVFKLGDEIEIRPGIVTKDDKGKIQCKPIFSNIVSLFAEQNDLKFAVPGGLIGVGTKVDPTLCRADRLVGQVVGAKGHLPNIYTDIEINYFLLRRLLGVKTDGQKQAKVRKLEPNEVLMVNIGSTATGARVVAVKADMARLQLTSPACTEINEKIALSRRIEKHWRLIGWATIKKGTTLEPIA

eIF5 (Saccharomyces cerevisiae), sequence (P38431 whole entry): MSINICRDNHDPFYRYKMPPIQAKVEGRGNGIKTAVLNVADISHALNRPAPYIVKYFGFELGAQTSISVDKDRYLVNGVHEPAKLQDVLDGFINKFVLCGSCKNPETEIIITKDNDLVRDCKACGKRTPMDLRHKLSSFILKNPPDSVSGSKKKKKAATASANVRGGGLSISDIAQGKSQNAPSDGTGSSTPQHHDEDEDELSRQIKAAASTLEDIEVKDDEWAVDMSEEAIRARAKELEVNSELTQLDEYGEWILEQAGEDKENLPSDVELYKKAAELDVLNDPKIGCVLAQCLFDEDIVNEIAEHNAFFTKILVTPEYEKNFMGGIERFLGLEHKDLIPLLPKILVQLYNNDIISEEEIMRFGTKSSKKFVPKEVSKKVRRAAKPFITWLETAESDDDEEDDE
Rab9, sequence (P51151 2-201): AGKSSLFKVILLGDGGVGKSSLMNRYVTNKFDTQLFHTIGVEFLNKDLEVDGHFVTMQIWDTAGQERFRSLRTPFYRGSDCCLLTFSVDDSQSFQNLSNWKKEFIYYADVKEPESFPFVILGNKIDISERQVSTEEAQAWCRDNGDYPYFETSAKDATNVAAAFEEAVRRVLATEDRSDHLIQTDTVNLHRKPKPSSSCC

For “Flag-tagged eIF5 (eIF5-Flag) (from UniProt P38431 1-405) (natural protein)”, the IC50 [1] was 244 nM.

For GDIα (from UniProt P21856), the Kd (Rab9) is listed as < 23 nM.

For eIF2 (from UniProt P20459), the Kd [2] is listed as 23 nM.

With “eIF2B-γG12V (mutant eIF2B complex) (from UniProt P14741 1-305; P32502 1-381; P09032 1-578; P12754 1-651; P32501 1-712)” the K1/2 of mutant eIF2B for [3H]GDP release from eIF2 prebound to eIF5 (coupled GDI–GDF–GEF assay; pair displaced: eIF2 and eIF5) [3] was 134 nM.

In the case of “eIF2B-γL480Q (mutant eIF2B complex) (from UniProt P14741 1-305; P32502 1-381; P09032 1-578; P12754 1-651; P32501 1-712)”, the K1/2 of mutant eIF2B for [3H]GDP release from eIF2 prebound to eIF5 (coupled GDI–GDF–GEF assay; pair displaced: eIF2 and eIF5) [3] is reported as 134 nM.

“four-subunit eIF2B complex lacking the α subunit (eIF2Bβδγɛ), P32502 1-381; P12754 1-651; P09032 1-578; P32501 1-712” showed an IC50 [4] of 25.7 nM.

B1: eIF2Bɛ subunit alone (natural protein)
chain: MAGKKGQKKSGLGNHGKNSDMDVEDRLQAVVLTDSYETRFMPLTAVKPRCLLPLANVPLIEYTLEFLAKAGVHEVFLICSSHANQINDYIENSKWNLPWSPFKITTIMSPEARCTGDVMRDLDNRGIITGDFILVSGDVLTNIDFSKMLEFHKKMHLQDKDHISTMCLSKASTYPKTRTIEPAAFVLDKSTSRCIYYQDLPLPSSREKTSIQIDPELLDNVDEFVIRNDLIDCRIDICTSHVPLIFQENFDYQSLRTDFVKGVISSDILGKHIYAYLTDEYAVRVESWQTYDTISQDFLGRWCYPLVLDSNIQDDQTYSYESRHIYKEKDVVLAQSCKIGKCTAIGSGTKIGEGTKIENSVIGRNCQIGENIRIKNSFIWDDCIIGNNSIIDHSLIASNATLGSNVRLNDGCIIGFNVKIDDNMDLDRNTKISASPLKNAGSRMYDNESNEQFDQDLDDQTLAVSIVGDKGVGYIYESEVSDDEDSSTEACKEINTLSNQLDELYLSDDSISSATKKTKKRRTMSVNSIYTDREEIDSEFEDEDFEKEGIATVERAMENNHDLDTALLELNTLRMSMNVTYHEVRIATITALLRRVYHFIATQTLGPKDAVVKVFNQWGLLFKRQAFDEEEYIDLMNIIMEKIVEQSFDKPDLILFSALVSLYDNDIIEEDVIYKWWDNVSTDPRYDEVKKLTVKWVEWLQNADEESSSEEE
For B1, the IC50 [5] was 215 nM.

B2: eIF2Bγɛ subcomplex (catalytic subcomplex of eIF2B) (complex)
chain 1: MSIQAFVFCGKGSNLAPFTQPDFPFQTQNKDSTAATSGDKLNELVNSALDSTVINEFMQHSTRLPKALLPIGNRPMIEYVLDWCDQADFKEISVVAPVDEIELIESGLTSFLSLRKQQFELIYKALSNSNHSHHLQDPKKINFIPSKANSTGESLQKELLPRINGDFVILPCDFVTDIPPQVLVDQFRNRDDNNLAMTIYYKNSLDSSIDKKQQQKQKQQQFFTVYSENEDSERQPILLDVYSQRDVTKTKYLQIRSHLLWNYPNLTVSTKLLNSFIYFCSFELCQLLKLGPQSMSRQASFKDPFTGNQQQQNPPTTDDDEDRNHDDDDDYKPSATSIQPTYFKKKNDLILDPINCNKSLSKVFRDLSRRSWQHSKPREPIGIFILPNETLFIRANNLNAYMDANRFVLKIKSQTMFTKNIQIQSAAIGADAIVDPKCQISAHSNVKMSVLGTQANIGSRCRVAGSLLFPGVHLGDEVILENCIIGPMAKIGSKCKLSNCYIEGHYVVEPKNNFKGETLANVYLDEDEEDELIYDDSVIAGESEIAEETDSDDRSDEDSDDSEYTDEYEYEDDGLFER
chain 2: B1 chain
B2 gave an IC50 (eIF2) of 20 nM.

B3: eIF2Bγ subunit alone (natural protein)
chain: B2 chain 1
Molecule B3 has an IC50 (eIF2) of 318 nM.
